Reference: patent US20130084298A1 (ACADEMIA SINICA, published 2013)

Molecular target: T1, human clathrin heavy chain (CHC) (human, UniProt Q00610 2-1675)
T1 construct: Endogenous ~190 kDa protein of human cancer cell lines (MIA PaCa-2 and others); No recombinant construct was used; also called CLTC gene product
Assay: hybridoma mAb, target identification

T1 sequence (Q00610 2-1675 limits assumed): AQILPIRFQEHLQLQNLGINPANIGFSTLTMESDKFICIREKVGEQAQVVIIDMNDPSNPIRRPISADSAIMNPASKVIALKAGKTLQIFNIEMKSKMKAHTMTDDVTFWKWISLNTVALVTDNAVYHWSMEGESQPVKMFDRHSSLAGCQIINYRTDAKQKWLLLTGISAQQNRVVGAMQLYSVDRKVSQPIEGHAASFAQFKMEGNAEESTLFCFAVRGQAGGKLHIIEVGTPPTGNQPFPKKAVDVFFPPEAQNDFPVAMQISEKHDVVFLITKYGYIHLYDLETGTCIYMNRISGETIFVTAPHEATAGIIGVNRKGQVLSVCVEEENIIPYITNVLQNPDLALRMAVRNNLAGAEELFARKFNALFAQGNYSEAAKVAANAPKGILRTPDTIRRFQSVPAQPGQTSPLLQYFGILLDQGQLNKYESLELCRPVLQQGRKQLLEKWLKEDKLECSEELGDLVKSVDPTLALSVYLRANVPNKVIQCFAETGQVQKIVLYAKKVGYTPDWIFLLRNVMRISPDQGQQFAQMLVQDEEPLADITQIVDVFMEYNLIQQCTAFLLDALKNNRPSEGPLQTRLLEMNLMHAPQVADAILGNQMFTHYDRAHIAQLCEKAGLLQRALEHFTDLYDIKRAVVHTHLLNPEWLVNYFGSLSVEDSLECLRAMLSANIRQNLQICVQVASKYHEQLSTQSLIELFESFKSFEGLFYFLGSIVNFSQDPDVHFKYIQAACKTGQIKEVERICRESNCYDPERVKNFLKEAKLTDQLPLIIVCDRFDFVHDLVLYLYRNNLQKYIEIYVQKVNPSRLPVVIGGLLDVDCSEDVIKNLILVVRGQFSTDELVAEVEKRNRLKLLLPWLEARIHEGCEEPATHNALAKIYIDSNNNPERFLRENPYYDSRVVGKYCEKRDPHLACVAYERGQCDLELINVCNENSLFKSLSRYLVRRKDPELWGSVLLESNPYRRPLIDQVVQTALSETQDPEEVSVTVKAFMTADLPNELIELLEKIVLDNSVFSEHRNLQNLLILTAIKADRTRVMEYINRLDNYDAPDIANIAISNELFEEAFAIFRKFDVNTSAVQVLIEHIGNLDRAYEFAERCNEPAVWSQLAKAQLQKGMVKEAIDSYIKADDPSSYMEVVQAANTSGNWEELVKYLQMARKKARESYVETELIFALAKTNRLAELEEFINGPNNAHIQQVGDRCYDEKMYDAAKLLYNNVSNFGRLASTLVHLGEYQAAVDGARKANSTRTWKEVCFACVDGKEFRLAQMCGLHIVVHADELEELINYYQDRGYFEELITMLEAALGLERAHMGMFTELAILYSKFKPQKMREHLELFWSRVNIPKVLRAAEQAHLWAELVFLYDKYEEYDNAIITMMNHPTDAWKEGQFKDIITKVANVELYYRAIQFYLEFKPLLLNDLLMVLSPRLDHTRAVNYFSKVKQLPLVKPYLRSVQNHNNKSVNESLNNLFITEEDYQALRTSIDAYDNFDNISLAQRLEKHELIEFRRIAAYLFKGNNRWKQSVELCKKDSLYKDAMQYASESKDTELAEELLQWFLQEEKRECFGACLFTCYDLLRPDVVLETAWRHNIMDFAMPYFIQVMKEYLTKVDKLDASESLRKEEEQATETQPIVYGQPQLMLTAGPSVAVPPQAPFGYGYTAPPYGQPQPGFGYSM

B1: Pa65-2 (antibody, V domains shown)
VH: EVKLVESGGGLVKPGGSLNISCAASGFTFSNYVMSWVRQTPEKRLEWVATISSGDNYMYYPDSVKGRFTISSDNAKNTLFLQMSSLRSEDTALYYCARHFDNYEGNSMDYWGQGTSVTVSS
VL: DIVLTQSPATLSVTPGDSVSLSCRASQSIRSNLHWYQQKSHESPRLLIKYASQSISGIPSRFSGSGSGTDFILSINSVATEDFGVYFCQQSNSWPLTFGAGTKLELKR
notes: also called Pa65-2 mAb; anti-CHC monoclonal antibody
- binding result: binds
